Reference: the Human Domainome abundance scans (Beltran et al. 2025)
± gives the uncertainty stated by the source.

B1: Zinc finger homeobox protein 4, residues 2086 to 2141; numbered along this chain, Q86UP3 (parent)
chain: RPRTRITDDQLKILRAYFDINNSPSEEQIQEMAEKSGLSQKVIKHWFRNTLFKERQ

Variants of: B1
Assay: abundance fitness (aPCA) (normalised: wild type 0, dead -1); higher = more abundant; growth selection in yeast, the domain comes from the species named
Conditions: Homo sapiens
Variant RPRTRITDDQLKILKAYFDINNSPSEEQIQEMAEKSGLSQKVIKHWFRNTLFKERQ [R15K] has an abundance fitness of 0.018 ± 0.093. RPRTRITDDQLKILPAYFDINNSPSEEQIQEMAEKSGLSQKVIKHWFRNTLFKERQ [R15P] gave an abundance fitness of -0.939 ± 0.12. For RPRTRITDDMLKILRAYFDINNSPSEEQIQEMAEKSGLSQKVIKHWFRNTLFKERQ [Q10M], the abundance fitness was -0.323 ± 0.11. With RPRTRITDDSLKILRAYFDINNSPSEEQIQEMAEKSGLSQKVIKHWFRNTLFKERQ [Q10S] the abundance fitness was -0.172 ± 0.076. In the case of RPRTRITDDNLKILRAYFDINNSPSEEQIQEMAEKSGLSQKVIKHWFRNTLFKERQ [Q10N], the abundance fitness is reported as -0.099 ± 0.19. Work on RPRTRITDDILKILRAYFDINNSPSEEQIQEMAEKSGLSQKVIKHWFRNTLFKERQ [Q10I] yielded an abundance fitness of -0.462 ± 0.12. Variant RPRTRITDDRLKILRAYFDINNSPSEEQIQEMAEKSGLSQKVIKHWFRNTLFKERQ [Q10R] has an abundance fitness of -0.526 ± 0.078. For RPRTRITDDPLKILRAYFDINNSPSEEQIQEMAEKSGLSQKVIKHWFRNTLFKERQ [Q10P], the abundance fitness was -0.819 ± 0.13. With RPRTRITDDELKILRAYFDINNSPSEEQIQEMAEKSGLSQKVIKHWFRNTLFKERQ [Q10E] the abundance fitness was -0.383 ± 0.092. With RPRTRITDDTLKILRAYFDINNSPSEEQIQEMAEKSGLSQKVIKHWFRNTLFKERQ [Q10T] the abundance fitness was -0.245 ± 0.092. With RPRTRITDDWLKILRAYFDINNSPSEEQIQEMAEKSGLSQKVIKHWFRNTLFKERQ [Q10W] the abundance fitness was -0.817 ± 0.1. With RPRTRITDDFLKILRAYFDINNSPSEEQIQEMAEKSGLSQKVIKHWFRNTLFKERQ [Q10F] the abundance fitness was -0.616 ± 0.19. Variant RPRTRITDDGLKILRAYFDINNSPSEEQIQEMAEKSGLSQKVIKHWFRNTLFKERQ [Q10G] has an abundance fitness of -0.514 ± 0.068. RPRTRITDDYLKILRAYFDINNSPSEEQIQEMAEKSGLSQKVIKHWFRNTLFKERQ [Q10Y] showed an abundance fitness of -0.498 ± 0.13. For RPRTRITDDQLKLLRAYFDINNSPSEEQIQEMAEKSGLSQKVIKHWFRNTLFKERQ [I13L], the abundance fitness was -0.08 ± 0.072. With RPRTRITDDQLKYLRAYFDINNSPSEEQIQEMAEKSGLSQKVIKHWFRNTLFKERQ [I13Y] the abundance fitness was -0.027 ± 0.21. Variant RPRTRITDDQLKDLRAYFDINNSPSEEQIQEMAEKSGLSQKVIKHWFRNTLFKERQ [I13D] has an abundance fitness of -0.289 ± 0.15. In the case of RPRTRITDDQLKELRAYFDINNSPSEEQIQEMAEKSGLSQKVIKHWFRNTLFKERQ [I13E], the abundance fitness is reported as -0.17 ± 0.12. For RPRTRITDDQLKHLRAYFDINNSPSEEQIQEMAEKSGLSQKVIKHWFRNTLFKERQ [I13H], the abundance fitness was -0.333 ± 0.14. With RPRTRITDDQLKRLRAYFDINNSPSEEQIQEMAEKSGLSQKVIKHWFRNTLFKERQ [I13R] the abundance fitness was -0.223 ± 0.074. Variant RPRTRITDDQLKQLRAYFDINNSPSEEQIQEMAEKSGLSQKVIKHWFRNTLFKERQ [I13Q] has an abundance fitness of 0.026 ± 0.11. Work on RPRTRITDDQLKWLRAYFDINNSPSEEQIQEMAEKSGLSQKVIKHWFRNTLFKERQ [I13W] yielded an abundance fitness of -0.136 ± 0.082. RPRTRITDDQLKTLRAYFDINNSPSEEQIQEMAEKSGLSQKVIKHWFRNTLFKERQ [I13T] showed an abundance fitness of 0.043 ± 0.11. RPRTRITDDQLKGLRAYFDINNSPSEEQIQEMAEKSGLSQKVIKHWFRNTLFKERQ [I13G] gave an abundance fitness of -0.347 ± 0.076. In the case of RPRTRITDDQLKALRAYFDINNSPSEEQIQEMAEKSGLSQKVIKHWFRNTLFKERQ [I13A], the abundance fitness is reported as -0.372 ± 0.084. RPRTRITDDQLKSLRAYFDINNSPSEEQIQEMAEKSGLSQKVIKHWFRNTLFKERQ [I13S] gave an abundance fitness of -0.218 ± 0.088. For RPRTRITDDQLKVLRAYFDINNSPSEEQIQEMAEKSGLSQKVIKHWFRNTLFKERQ [I13V], the abundance fitness was -0.027 ± 0.076. Work on RPRTRITDDQLKFLRAYFDINNSPSEEQIQEMAEKSGLSQKVIKHWFRNTLFKERQ [I13F] yielded an abundance fitness of -0.13 ± 0.19. In the case of RPRTRITDDQLKMLRAYFDINNSPSEEQIQEMAEKSGLSQKVIKHWFRNTLFKERQ [I13M], the abundance fitness is reported as -0.057 ± 0.084. In the case of RPRTRITDDQLKPLRAYFDINNSPSEEQIQEMAEKSGLSQKVIKHWFRNTLFKERQ [I13P], the abundance fitness is reported as -0.612 ± 0.14. With RPRTRITDDQLKKLRAYFDINNSPSEEQIQEMAEKSGLSQKVIKHWFRNTLFKERQ [I13K] the abundance fitness was -0.062 ± 0.12. With RPRTRITDDQLKIKRAYFDINNSPSEEQIQEMAEKSGLSQKVIKHWFRNTLFKERQ [L14K] the abundance fitness was -1.16 ± 0.2. RPRTRITDDQLKIERAYFDINNSPSEEQIQEMAEKSGLSQKVIKHWFRNTLFKERQ [L14E] showed an abundance fitness of -1 ± 0.14. RPRTRITDDQLKIHRAYFDINNSPSEEQIQEMAEKSGLSQKVIKHWFRNTLFKERQ [L14H] gave an abundance fitness of -1 ± 0.23. RPRTRITDDQLKIWRAYFDINNSPSEEQIQEMAEKSGLSQKVIKHWFRNTLFKERQ [L14W] gave an abundance fitness of -0.777 ± 0.14. For RPRTRITDDQLKIARAYFDINNSPSEEQIQEMAEKSGLSQKVIKHWFRNTLFKERQ [L14A], the abundance fitness was -0.865 ± 0.12. With RPRTRITDDQLKINRAYFDINNSPSEEQIQEMAEKSGLSQKVIKHWFRNTLFKERQ [L14N] the abundance fitness was -1.18 ± 0.31. Work on RPRTRITDDQLKIFRAYFDINNSPSEEQIQEMAEKSGLSQKVIKHWFRNTLFKERQ [L14F] yielded an abundance fitness of -0.304 ± 0.28. For RPRTRITDDQLKISRAYFDINNSPSEEQIQEMAEKSGLSQKVIKHWFRNTLFKERQ [L14S], the abundance fitness was -1.02 ± 0.14. Work on RPRTRITDDQLKIIRAYFDINNSPSEEQIQEMAEKSGLSQKVIKHWFRNTLFKERQ [L14I] yielded an abundance fitness of -0.439 ± 0.42. RPRTRITDDQLKIQRAYFDINNSPSEEQIQEMAEKSGLSQKVIKHWFRNTLFKERQ [L14Q] showed an abundance fitness of -0.866 ± 0.13. Variant RPRTRITDDQLKIDRAYFDINNSPSEEQIQEMAEKSGLSQKVIKHWFRNTLFKERQ [L14D] has an abundance fitness of -1.19 ± 0.46. RPRTRITDDQLKIYRAYFDINNSPSEEQIQEMAEKSGLSQKVIKHWFRNTLFKERQ [L14Y] showed an abundance fitness of -1.22 ± 0.33. Variant RPRTRITDDQLKICRAYFDINNSPSEEQIQEMAEKSGLSQKVIKHWFRNTLFKERQ [L14C] has an abundance fitness of -0.671 ± 0.17. With RPRTRITDDQLKIRRAYFDINNSPSEEQIQEMAEKSGLSQKVIKHWFRNTLFKERQ [L14R] the abundance fitness was -0.949 ± 0.096. With RPRTRITDDQLKIVRAYFDINNSPSEEQIQEMAEKSGLSQKVIKHWFRNTLFKERQ [L14V] the abundance fitness was -0.273 ± 0.083. Work on RPRTRITDDQLKITRAYFDINNSPSEEQIQEMAEKSGLSQKVIKHWFRNTLFKERQ [L14T] yielded an abundance fitness of -1.01 ± 0.12.
